# Experimental data: patent publication US9388243B2, “Method of target membrane protein depletion” (Samsung Electronics Co., Ltd., priority 2013, dated 2016)
# B1: anti-EGFR ab: scFv-Fc antibody recognizing EGFR: SEQ ID NO: 109 and 111 variable domains fused to N-terminus of IgG2 Fc (antibody, V domains shown)
# VH: QVQLVQSGAEVKKPGSSVKVSCKASGFTFTDYKIHWVRQAPGQGLEWMGYFNPNSGYSTYAQKFQGRVTITADKSTSTAYMELSSLRSEDTAVYYCARLSPGGYYVMDAWGQGTTVTVSS
# VL: DIQMTQSPSSLSASVGDRVTITCRASQGINNYLNWYQQKPGKAPKRLIYNTNNLQTGVPSRFSGSGSGTEFTLTISSLQPEDFATYYCLQHNSFPTFGQGTKLEIKRT
# modifications: IgG2 Fc without entry; linker; Synthetic (heavy-chain variable region of anti-EGFR antibody); Synthetic (light-chain variable region of anti-EGFR antibody)
# Target: T1, EGFR in MKN45 stomach cancer cells (Homo sapiens, UniProt P00533)
# T1 construct: endogenous in cells; host or cells: MKN45 (JCRB)
# Assay: Confocal microscopy of EGFR internalization and degradation in MKN45 cells
# Type: cell-based
# Conditions: MKN45, 5 μg/ml each, 4 hrs, confocal images (FIGS. 5-7)
# Description: Each antibody was used at a density of 5 μg/ml/well, whether individually or in combination. For control, the cells were treated with PBS only. The cells were immobilized onto the plates by treatment with 4% (v/v) formaldehyde for 15 min, washed three times with PBS, and then blocked with a blocking buffer (0.5% triton x-100 and 5% donkey serum) at room temperature for 1 hr. […] The cells were washed again three times with PBS, and incubated at room temperature for 1 hr with 100 μl of a 1:2000 dilution of a secondary antibody (A21433, Invitrogen). After being washed three times with PBS, the cells were counterstained with a DAPI-containing mounting medium (H-1200, Vector Lab), and examined by Confocal microscopy (Zeiss, LSM710).
# Comparison was made of degradation efficiency between the bispecific antibody and a combination of the monospecific antibodies.
molecule,measurement,setting,value
B1,internalization into a cell and degradation of EGFR,,induced by neither
same,internalization into a cell and degradation of EGFR,listed as anti-EGFR antibody,did not provoke the degradation of EGFR at all
